These results are taken from US20040147432A1 (MERCK, published 2004).

Test [1] has as its target T1, human MCH-1R (human, UniProt Q99705 1-353). The experiment in a line: cell-based or functional assay.
Test [2] addresses T2, human melanin concentrating hormone type 2 receptor (MCH-2R) (human, UniProt Q969V1 1-340). In words: cell-based or functional assay.
For test [3], the target named is T1, human MCH-1R. In words: SPA competition with [125I]-human MCH (Phe13, Tyr19) on receptor membranes. The method, then:
(§1) For the SPA-based assay, WGA-PVT beads (NEN Life Sciences Products) were resuspended in Dulbecco's PBS with calcium and magnesium (500 mg beads in 4 ml PBS). […] The suspension was mixed gently for 20 minutes, 12.3 ml of assay buffer and protease inhibitors were added (final concentration given): 2 μg/ml leupeptin, 10 μM phosphoramidon, 40 μg/ml bacitracin, 5 μg/ml aprotinin, 0.1 mM Pefabloc.
(§2) Coated beads were kept on ice until use. […] Binding reactions were allowed to proceed at room temperature for 3 hours. Quantitation was performed by scintillation counting (TopCount device).

Test [4] concerns the target T2, human melanin concentrating hormone …. Described as above. The method, then: as §1, §2
Test [5] has the same target. Described as above. The procedure: as §1, §2
The source holds these as a separate data set.

For test [6] the target is unchanged. In words: cell-based or functional assay. This is another data set of the same source.
Test [7] deals with T1, human MCH-1R. The experiment in a line: SPA competition with [125I]-human MCH (Phe13, Tyr19) on receptor membranes. The procedure:
as §1, §2
This is another data set of the same source.

Test [8] has as its target T1, human MCH-1R. In words: cell-based or functional assay. The source holds these as a separate data set.

Where two headings read alike, the source gives them in different places. Bridges are numbered along the chain shown (N, C = ends). Where no end group is shown, it is not given here. [ ]: non-standard residue; d: D form. The star is where a group is joined. Pentanoyl(5-guanidino) = NC(N)=NCCCCC(=O)*; hArg = N=C(N)NCCCC[C@H](N)C(=O)O; dCha = N[C@H](CC1CCCCC1)C(=O)O; Aib = CC(C)(N)C(=O)O A value given as a limit tells only on which side of the number the result lay.

T2 sequence (Q969V1 whole entry, form in doubt): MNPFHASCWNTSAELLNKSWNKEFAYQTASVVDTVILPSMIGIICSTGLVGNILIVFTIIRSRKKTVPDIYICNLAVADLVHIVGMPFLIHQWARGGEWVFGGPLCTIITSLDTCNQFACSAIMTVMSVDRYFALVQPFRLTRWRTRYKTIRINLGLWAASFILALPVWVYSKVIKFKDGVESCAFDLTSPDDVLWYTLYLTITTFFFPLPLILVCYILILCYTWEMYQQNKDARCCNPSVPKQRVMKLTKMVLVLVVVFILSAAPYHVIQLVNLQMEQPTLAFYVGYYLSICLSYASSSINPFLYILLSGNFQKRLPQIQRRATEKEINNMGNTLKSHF
T1 sequence (Q99705 whole entry, form in doubt): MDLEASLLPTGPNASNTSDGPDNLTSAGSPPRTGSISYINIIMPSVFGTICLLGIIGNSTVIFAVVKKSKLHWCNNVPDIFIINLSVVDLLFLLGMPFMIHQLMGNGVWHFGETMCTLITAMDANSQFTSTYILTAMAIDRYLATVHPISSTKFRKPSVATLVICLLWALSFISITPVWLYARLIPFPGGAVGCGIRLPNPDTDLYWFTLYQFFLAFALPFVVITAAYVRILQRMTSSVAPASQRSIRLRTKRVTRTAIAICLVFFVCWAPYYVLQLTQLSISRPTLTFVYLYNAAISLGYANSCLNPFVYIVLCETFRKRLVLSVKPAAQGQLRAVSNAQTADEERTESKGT

For Ac-RCML[dF]RVYRPC-NH2 (disulfide 2-11 (inferred), also called D-Phe^10) [SEQ. ID. NO. 17], the “Activation % at 10 µM (aequorin functional assay)” value (“Activation % at 10 µM” below) with human MCH-1R [1] was 5%; in test [2] it was 102%. Besides, the figures for the “EC50 (aequorin functional assay)” value (in the test with human MCH-1R [1]; in test [2]) were greater than 10000 nM and 25 nM, respectively. In addition, the IC50 with human MCH-1R [3] came out at 18 nM; in test [4] it was 47 nM.
Take Ac-RCML[dA][hArg]VYRPC-NH2 (disulfide 2-11 (inferred), also called D-Ala^10, Harg^11) [SEQ. ID. NO. 36]: the “Activation % at 10 µM” value in the test with human MCH-1R [1] worked out at 0.1%; in test [2], 74%. Moreover, the “EC50 (aequorin functional assay)” value with human MCH-1R [1] was greater than 10000 nM; in test [2] it was 19 nM. The IC50 with human MCH-1R [3] is 56 nM; in test [4], 0.9 nM.
Take RCMLXRVYRPC (Phg^10 (phenylglycine), also called Phg^10) [SEQ. ID. NO. 12]: the “Activation % at 10 µM” value came out at 0.1% with human MCH-1R [1] and 80% in test [2]. Moreover, the “EC50 (aequorin functional assay)” value is greater than 10000 nM with human MCH-1R [1] and 140 nM in test [2]. The IC50 in the test with human MCH-1R [3] stood at 2.9 nM; in test [4] it was 312 nM.

B1: SEQ. ID. NO. 7 (peptide)
peptide: Ac-RCMLARVYRPC-NH2
modifications: disulfide 2-11
SMILES: CSCC[C@@H]1NC(=O)[C@@H](NC(=O)[C@H](CCCNC(=N)N)NC(C)=O)CSSC[C@@H](C(N)=O)NC(=O)[C@@H]2CCCN2C(=O)[C@H](CCCNC(=N)N)NC(=O)[C@H](Cc2ccc(O)cc2)NC(=O)[C@H](C(C)C)NC(=O)[C@H](CCCNC(=N)N)NC(=O)[C@H](C)NC(=O)[C@H](CC(C)C)NC1=O
notes: also called Ala^10
Take B1: the “Activation % at 10 µM” value came to 104% with human MCH-1R [1] and 97% in test [2]. Moreover, the “EC50 (aequorin functional assay)” value in the test with human MCH-1R [1] came to 31 nM; in test [2] it was 7.7 nM. Also, the IC50 is 0.59 nM with human MCH-1R [3] and 4.6 nM in test [4].
RCMLLRVYRPC (also called Leu^10) [SEQ. ID. NO. 8]: the entries for the “Activation % at 10 µM” value (in the test with human MCH-1R [1]; in test [2]) were 106% and 80%, respectively. For the same molecule, the “EC50 (aequorin functional assay)” value in the test with human MCH-1R [1] was 23 nM; in test [2], 54 nM. The 50% inhibitory concentration (IC50) in the test with human MCH-1R [3] came out at 0.06 nM; in test [4], 20 nM.

B2: SEQ. ID. NO. 10 (peptide)
peptide: Ac-RCMLSRVYRPC-NH2
modifications: disulfide 2-11
SMILES: CSCC[C@@H]1NC(=O)[C@@H](NC(=O)[C@H](CCCNC(=N)N)NC(C)=O)CSSC[C@@H](C(N)=O)NC(=O)[C@@H]2CCCN2C(=O)[C@H](CCCNC(=N)N)NC(=O)[C@H](Cc2ccc(O)cc2)NC(=O)[C@H](C(C)C)NC(=O)[C@H](CCCNC(=N)N)NC(=O)[C@H](CO)NC(=O)[C@H](CC(C)C)NC1=O
notes: also called Ser^10
Regarding B2, the “Activation % at 10 µM” value with human MCH-1R [1] turned out to be 104%; in test [2] it was 95%. For the same molecule, the “EC50 (aequorin functional assay)” value stood at 65 nM with human MCH-1R [1] and 44 nM in test [2]. Moreover, the figures for the IC50 (in the test with human MCH-1R [3]; in test [4]) were 0.32 nM and 52 nM, respectively.

B3: SEQ. ID. NO. 27 (peptide)
peptide: Ac-RCMLGRVFRPC-NH2
modifications: disulfide 2-11
SMILES: CSCC[C@@H]1NC(=O)[C@@H](NC(=O)[C@H](CCCNC(=N)N)NC(C)=O)CSSC[C@@H](C(N)=O)NC(=O)[C@@H]2CCCN2C(=O)[C@H](CCCNC(=N)N)NC(=O)[C@H](Cc2ccccc2)NC(=O)[C@H](C(C)C)NC(=O)[C@H](CCCNC(=N)N)NC(=O)CNC(=O)[C@H](CC(C)C)NC1=O
notes: also called Phe^13
As to B3, the “Activation % at 10 µM” value in the test with human MCH-1R [1] came out at 96%; in test [2] it was 94%. Also, the “EC50 (aequorin functional assay)” value with human MCH-1R [1] was 46 nM; in test [2], 12 nM. The figures for the concentration for half-maximal inhibition (IC50) (with human MCH-1R [3]; in test [4]) were 1 nM and 1.5 nM, respectively.
Consider [Pentanoyl(5-guanidino)]CML[dA]RVYRPC-NH2 (disulfide 2-11 (inferred); not fully specified, also called (?-NH2)-Arg^6, D-Ala^10) [SEQ. ID. NO. 34], for which the results for the “Activation % at 10 µM” value (in the test with human MCH-1R [1]; in test [2]) were 4% and 110%, respectively. Also, the “EC50 (aequorin functional assay)” value in the test with human MCH-1R [1] worked out at 2000 nM; in test [2], 31 nM. The IC50 stood at 30 nM with human MCH-1R [3] and 250 nM in test [4].
In the case of Ac-RCML[dS]RVYRPC-NH2 (disulfide 2-11 (inferred), also called D-Ser^10) [SEQ. ID. NO. 19], the “Activation % at 10 µM” value was found to be 47% in the test with human MCH-1R [1] and 113% in test [2]. Moreover, the “EC50 (aequorin functional assay)” value in the test with human MCH-1R [1] was determined as 2560 nM; in test [2] it was 7 nM. Besides, the figures for the IC50 (with human MCH-1R [3]; in test [4]) were 31 nM and 1.6 nM, respectively.
For RCMLGXVYRPC (Harg^11 (homoarginine), also called Harg^11) [SEQ. ID. NO. 24], the “Activation % at 10 µM” value is 72% in the test with human MCH-1R [1] and 43% in test [2]. Further, the “EC50 (aequorin functional assay)” value with human MCH-1R [1] was 1200 nM; in test [2], greater than 10000 nM. In addition, the figures for the IC50 (with human MCH-1R [3]; in test [4]) were 6.9 nM and 0.4 nM, respectively.
In the case of Ac-RCML[dN]RVYRPC-NH2 (disulfide 2-11 (inferred), also called D-Asn^10) [SEQ. ID. NO. 18], the “Activation % at 10 µM” value with human MCH-1R [1] is 39%; in test [2], 106%. Further, the “EC50 (aequorin functional assay)” value with human MCH-1R [1] was determined as 3000 nM; in test [2] it was 24 nM. Also, the IC50 came to 97 nM in the test with human MCH-1R [3] and 2.3 nM in test [4].

B4: SEQ. ID. NO. 13 (peptide)
peptide: Ac-RCML[dA]RVYRPC-NH2
modifications: disulfide 2-11
SMILES: CSCC[C@@H]1NC(=O)[C@@H](NC(=O)[C@H](CCCNC(=N)N)NC(C)=O)CSSC[C@@H](C(N)=O)NC(=O)[C@@H]2CCCN2C(=O)[C@H](CCCNC(=N)N)NC(=O)[C@H](Cc2ccc(O)cc2)NC(=O)[C@H](C(C)C)NC(=O)[C@H](CCCNC(=N)N)NC(=O)[C@@H](C)NC(=O)[C@H](CC(C)C)NC1=O
notes: also called D-Ala^10
As to B4, the “Activation % at 10 µM” value with human MCH-1R [1] was determined as 40%; in test [2] it was 103%. Moreover, the results for the “EC50 (aequorin functional assay)” value (in the test with human MCH-1R [1]; in test [2]) were 1360 nM and 16 nM, respectively. Also, the half-maximal inhibitory concentration (IC50) amounted to 490 nM in the test with human MCH-1R [3] and 3.2 nM in test [4].

B5: SEQ. ID. NO. 11 (peptide)
peptide: Ac-RCML[Aib]RVYRPC-NH2
modifications: disulfide 2-11
SMILES: CSCC[C@@H]1NC(=O)[C@@H](NC(=O)[C@H](CCCNC(=N)N)NC(C)=O)CSSC[C@@H](C(N)=O)NC(=O)[C@@H]2CCCN2C(=O)[C@H](CCCNC(=N)N)NC(=O)[C@H](Cc2ccc(O)cc2)NC(=O)[C@H](C(C)C)NC(=O)[C@H](CCCNC(=N)N)NC(=O)C(C)(C)NC(=O)[C@H](CC(C)C)NC1=O
notes: also called Aib^10
For B5, the “Activation % at 10 µM” value was found to be 22% in the test with human MCH-1R [1] and 104% in test [2]. Besides, the results for the “EC50 (aequorin functional assay)” value (in the test with human MCH-1R [1]; in test [2]) were 1900 nM and 24 nM, respectively. Also, the IC50 in the test with human MCH-1R [3] came to 90 nM; in test [4], 2.2 nM.

B6: SEQ. ID. NO. 41 (peptide)
peptide: AFDMLRCMLGRVYRPCWQV
modifications: disulfide 7-16
notes: positions 1-19 as in hMCH; also called Ala^1
As for B6, the IC50 in test [5] was 2.1 nM. Also, in test [6], the “Activation % at 10 µM” value came to 96% and the “EC50 (aequorin functional assay)” value turned out to be 114 nM.
Regarding DADMLRCMLGRVYRPCWQV (disulfide 7-16, also called Ala^2) [SEQ. ID. NO. 42], the IC50 stood at 0.2 nM in the test with human MCH-1R [7] and 1.1 nM in test [5]. Moreover, the results for the “Activation % at 10 µM” value (in the test with human MCH-1R [8]; in test [6]) were 97% and 102%, respectively. The “EC50 (aequorin functional assay)” value with human MCH-1R [8] stood at 9.9 nM; in test [6] it was 28.6 nM.
In the case of Ac-RCML[dCha]RVYRPC-NH2 (disulfide 2-11 (inferred), also called D-Cha^10) [SEQ. ID. NO. 16], the “Activation % at 10 µM” value with human MCH-1R [1] was determined as 0.1%; in test [2], 74%. Besides, the “EC50 (aequorin functional assay)” value with human MCH-1R [1] was greater than 10000 nM; in test [2] it was 207 nM. The figures for the half-inhibitory concentration (IC50) (with human MCH-1R [3]; in test [4]) were 11 nM and 74 nM, respectively.
On to RCMLGXVYRPC (Arg(NO2)^11 (nitroarginine), also called Arg(NO2)^11) [SEQ. ID. NO. 25], for which the “EC50 (aequorin functional assay)” value in the test with human MCH-1R [1] is greater than 1000 nM. In addition, in test [2], the “Activation % at 10 µM” value came to 39% and the “EC50 (aequorin functional assay)” value is greater than 10000 nM. The “% @ concentration” value in the test with human MCH-1R [3] amounted to 80 % @ 1 µM. The same molecule showed a half-maximal inhibitory concentration (IC50) in test [4] of 4.9 nM.

Broadly, the IC50 is the concentration at which inhibition is half-maximal. Low values mean inhibition by little substance, high ones a need for much substance.
